Legend:
[1] = molecular target: p6055-211 (Homo sapiens (Human)) (UniProt P19438); assay: cell staining, normalized to HA staining, p60ΔCD set at 1
[2] = molecular target: p60ΔCD-HA KY19/20AA (Homo sapiens (Human)) (UniProt P19438); assay: as above
[3] = molecular target: p60ΔCD-HA K19E (Homo sapiens (Human)) (UniProt P19438); assay: as above
[4] = molecular target: p60ΔCD-HA N66F (Homo sapiens (Human)) (UniProt P19438); assay: as above
[5] = molecular target: p60ΔCD-HA K32A (Homo sapiens (Human)) (UniProt P19438); assay: as above
[6] = molecular target: p60ΔCD-HA T61A (Homo sapiens (Human)) (UniProt P19438); assay: as above
[7] = molecular target: p60ΔCD-HA (Homo sapiens (Human)) (UniProt P19438); assay: as above
[8] = molecular target: p60ΔCD-HA Q24A (Homo sapiens (Human)) (UniProt P19438); assay: as above
[9] = molecular target: p60ΔCD-HA W108T (Homo sapiens (Human)) (UniProt P19438); assay: as above
[10] = molecular target: p60ΔCD-HA L112E (Homo sapiens (Human)) (UniProt P19438); assay: as above
[11] = molecular target: p60ΔCD-HA E57A (Homo sapiens (Human)) (UniProt P19438); assay: as above
[12] = molecular target: p60ΔCD-HA R77A (Homo sapiens (Human)) (UniProt P19438); assay: as above
[13] = molecular target: p60ΔCD-HA DT49/50AA (Homo sapiens (Human)) (UniProt P19438); assay: as above
[14] = molecular target: p6055-211 (Homo sapiens (Human)) (UniProt P19438); assay: cell staining, % positive cells / % HA positive cells, p60ΔCD set at 1
[15] = molecular target: p60ΔCD-HA KY19/20AA (Homo sapiens (Human)) (UniProt P19438); assay: as above
[16] = molecular target: p60ΔCD-HA K19E (Homo sapiens (Human)) (UniProt P19438); assay: as above
[17] = molecular target: p60ΔCD-HA N66F (Homo sapiens (Human)) (UniProt P19438); assay: as above
[18] = molecular target: p60ΔCD-HA K32A (Homo sapiens (Human)) (UniProt P19438); assay: as above
[19] = molecular target: p60ΔCD-HA T61A (Homo sapiens (Human)) (UniProt P19438); assay: as above
[20] = molecular target: p60ΔCD-HA (Homo sapiens (Human)) (UniProt P19438); assay: as above
[21] = molecular target: p60ΔCD-HA Q24A (Homo sapiens (Human)) (UniProt P19438); assay: as above
[22] = molecular target: p60ΔCD-HA W108T (Homo sapiens (Human)) (UniProt P19438); assay: as above
[23] = molecular target: p60ΔCD-HA L112E (Homo sapiens (Human)) (UniProt P19438); assay: as above
[24] = molecular target: p60ΔCD-HA E57A (Homo sapiens (Human)) (UniProt P19438); assay: as above
[25] = molecular target: p60ΔCD-HA R77A (Homo sapiens (Human)) (UniProt P19438); assay: as above
[26] = molecular target: p60ΔCD-HA DT49/50AA (Homo sapiens (Human)) (UniProt P19438); assay: as above

“p60-specific monoclonal antibody clone 4.12 (Zymed)” showed a clone 4.12 staining normalized against HA staining (relative to p60ΔCD) [1] of 0.02, a clone 4.12 staining normalized against HA staining (relative to p60ΔCD) [2] of 0.14 and a clone 4.12 staining normalized against HA staining (relative to p60ΔCD) [3] of 1.07. For the same substance, the clone 4.12 staining normalized against HA staining (relative to p60ΔCD) [4] was 0.04, the clone 4.12 staining normalized against HA staining (relative to p60ΔCD) [5] was 0.01 and the clone 4.12 staining normalized against HA staining (relative to p60ΔCD) [6] was 1.28. It also gave a clone 4.12 staining normalized against HA staining (relative to p60ΔCD) [7] of 1, a clone 4.12 staining normalized against HA staining (relative to p60ΔCD) [8] of 0.97 and a clone 4.12 staining normalized against HA staining (relative to p60ΔCD) [9] of 1.11. It also gave a clone 4.12 staining normalized against HA staining (relative to p60ΔCD) [10] of 1.27, a clone 4.12 staining normalized against HA staining (relative to p60ΔCD) [11] of 0.04 and a clone 4.12 staining normalized against HA staining (relative to p60ΔCD) [12] of 0.99. For the same substance, the clone 4.12 staining normalized against HA staining (relative to p60ΔCD) [13] was 0.96.
In the case of “p60-specific monoclonal antibody clone MAB225 (R&D Systems)”, the MAB225 staining normalized against HA staining (relative to p60ΔCD) [14] is reported as 0.87, the MAB225 staining normalized against HA staining (relative to p60ΔCD) [15] is reported as 0.59 and the MAB225 staining normalized against HA staining (relative to p60ΔCD) [16] is reported as 1.05. The MAB225 staining normalized against HA staining (relative to p60ΔCD) [17] was 0.67, the MAB225 staining normalized against HA staining (relative to p60ΔCD) [18] was 0.36 and the MAB225 staining normalized against HA staining (relative to p60ΔCD) [19] was 1.42. It also gave an MAB225 staining normalized against HA staining (relative to p60ΔCD) [20] of 1, an MAB225 staining normalized against HA staining (relative to p60ΔCD) [21] of 1.06 and an MAB225 staining normalized against HA staining (relative to p60ΔCD) [22] of 1.32. For the same substance, the MAB225 staining normalized against HA staining (relative to p60ΔCD) [23] was 1.31, the MAB225 staining normalized against HA staining (relative to p60ΔCD) [24] was 1.68 and the MAB225 staining normalized against HA staining (relative to p60ΔCD) [25] was 1.06. It also gave an MAB225 staining normalized against HA staining (relative to p60ΔCD) [26] of 1.16.
